# Measurements reported in PMC4838378 (Nucleic Acids Research, 2016).
# Like-named read-outs stand apart in the source and are kept apart here.
# T1: HpDnaB replicative helicase (Helicobacter pylori, UniProt O25916 1-488)
# T1 sequence: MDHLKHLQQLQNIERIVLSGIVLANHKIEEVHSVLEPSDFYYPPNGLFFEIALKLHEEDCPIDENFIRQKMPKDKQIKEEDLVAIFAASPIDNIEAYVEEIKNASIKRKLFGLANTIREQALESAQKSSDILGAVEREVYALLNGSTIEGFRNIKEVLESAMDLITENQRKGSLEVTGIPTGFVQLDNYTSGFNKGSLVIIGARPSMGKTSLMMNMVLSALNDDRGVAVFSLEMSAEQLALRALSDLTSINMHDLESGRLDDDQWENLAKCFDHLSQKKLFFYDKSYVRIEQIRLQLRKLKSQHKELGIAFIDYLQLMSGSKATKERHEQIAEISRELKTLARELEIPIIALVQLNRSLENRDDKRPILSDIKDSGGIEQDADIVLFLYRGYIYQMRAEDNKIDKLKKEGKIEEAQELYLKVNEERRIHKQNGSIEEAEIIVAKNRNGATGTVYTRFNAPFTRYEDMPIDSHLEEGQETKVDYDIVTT
# T2: HpDnaB replicative helicase;Hp0897 (Helicobacter pylori;Helicobacter pylori …, UniProt O25916;O25557 1-488;1-208, |)
# T2 sequence 1: T1 sequence
# T2 sequence 2: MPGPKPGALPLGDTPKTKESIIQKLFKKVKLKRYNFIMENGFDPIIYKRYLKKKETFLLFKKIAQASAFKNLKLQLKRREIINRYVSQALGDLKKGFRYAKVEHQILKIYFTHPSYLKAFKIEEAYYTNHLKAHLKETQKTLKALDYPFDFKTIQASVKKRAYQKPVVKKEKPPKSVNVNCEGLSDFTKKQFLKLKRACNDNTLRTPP
# T3: Hp0897 (Helicobacter pylori 26695, UniProt O25557 1-208)
# T3 sequence: T2 sequence 2
# B1: biotinylated 70-nt ssDNA-1 (ssDNA)
# DNA: CTGCCACACACCACCAAAGCTAACTGACAGCAGAATCCAGATGGATCATTTAAAGCATTTGCAACAATTG
# modifications: 5' biotin
# B2: 70-nt forked DNA (ssDNA-1/ssDNA-2) (dsDNA)
# DNA 1: B1 DNA
# DNA 2: CAATTGTTGCAAATGCTTTAAATGATCCATGACCTAAGACGACAGTCAATCGAACCACCACACACCGTC
# B3: 70NZ ssDNA-1 (ssDNA)
# DNA: B1 DNA
# B4: His6-Hp0897 (natural protein, Helicobacter pylori strain 26695, UniProt O25557 1-208, looked up)
# chain: T2 sequence 2
# Experiments:
# [1] = molecular target: T1, HpDnaB replicative helicase; assay: pull-down
# [2] = molecular target: T2, HpDnaB replicative helicase;Hp0897; assay: EMSA
# Hp0897 = molecular target: T3, Hp0897; assay: EMSA
# [3] = molecular target: T2, HpDnaB replicative helicase;Hp0897; assay: EMSA; remark: listed apart in the source
# cross-linking = molecular target: the molecule itself; assay: cross-linking
binder,measurement,setting,value
B1,binding result,[1],binds
B2,binding result,[2],binds
B3,binding result,Hp0897,binds
same,binding result,[3],binds
B4,stoichiometry N,cross-linking,2
